Test results published in PMC9065035, “Structural basis for the synthesis of the core 1 structure by C1GalT1” (Nature Communications, 2022).
Ends that are not written are not given here. * marks the point of attachment. αGalNAc = CC(=O)N[C@@H]1[C@@H](O)[C@@H](O)[C@@H](CO)O[C@@H]1*

B1: DmC1GalT1^S73-Q388 (Drosophila melanogaster C1GalT1, residues S73-Q388) (enzyme)
chain: not shown
modifications: N-glycans trimmed with Endo-H
notes: C1GalT1 of Drosophila melanogaster, residues S73-Q388; Homodimer by SEC and in the crystal; also called truncated version of DmC1GalT1; DmC1GalT1-His
B2: P4 (PAAT*GPY) glycopeptide (peptide)
peptide: PAAT(αGalNAc)GPY-NH2
notes: designed acceptor glycopeptide; Made on Rink Amide resin, so a C-terminal amide is to be expected; source: synthetic peptide (solid-phase, Rink Amide MBHA resin, HPLC purified)
B3: DmC1GalT1^S73-Q388 (Drosophila melanogaster C1GalT1, residues S73-Q388) (enzyme)
chain: not shown
modifications: N-glycans trimmed with Endoglycosidase-H (expressed with kifunensine)
notes: C1GalT1 (core 1 synthase) of Drosophila melanogaster, residues S73-Q388; Expressed with the honey bee mellitin secretion signal in front (pFastBac1-mellitin-DmC1GalT1-6His); two molecules in the asymmetric unit arranged as a homodimer; also called truncated version of DmC1GalT1; mellitin-DmC1GalT1-6His; source: High Five insect cells (baculovirus), secreted, purified (His-Trap, Endo-H, MBP-Trap, …)
B4: P7 glycopeptide YADT*GPF (GalNAc on Thr) (peptide)
peptide: YADT(αGalNAc)GPF-NH2
notes: Asp at -1; Tied to the name P7 by the text (Asp at -1; ITC was done with P4 and P7 only besides APDT*RP); Made on Rink Amide MBHA resin, so probably a C-terminal amide (surmised); source: synthetic peptide (solid-phase synthesis, HPLC purified)
B5: P4 glycopeptide PAAT*GPY (GalNAc on Thr) (peptide)
peptide: PAAT(αGalNAc)GPY-NH2
notes: Tied to the name P4 by the residues that the text names for P4 (Pro1, Ala2, Ala3, Thr4, Gly5, Tyr7); Made on Rink Amide MBHA resin, so probably a C-terminal amide (surmised); source: synthetic peptide (solid-phase synthesis, HPLC purified)
B6: P7 (YADT*GPF) glycopeptide (peptide)
peptide: YADT(αGalNAc)GPF-NH2
notes: as for B2
B7: APDT*RP glycopeptide (MUC1 tandem repeat epitope with alpha-GalNAc on Thr) (peptide)
peptide: APDT(αGalNAc)RP-NH2
modifications: N-terminus assumed
SMILES: CC(=O)N[C@H]1[C@@H](O[C@H](C)[C@H](NC(=O)[C@H](CC(=O)O)NC(=O)[C@@H]2CCCN2C(=O)[C@H](C)N)C(=O)N[C@@H](CCCNC(=N)N)C(=O)N2CCC[C@H]2C(N)=O)O[C@H](CO)[C@H](O)[C@@H]1O
notes: source: synthetic peptide (Fmoc solid phase, Rink Amide MBHA resin, HPLC)

Experiments:
[1] = target: the molecule itself; assay: SEC; size exclusion chromatography of DmC1GalT1^S73-Q388 against protein markers of known molecular weight
[2] = target: the molecule itself; assay: crystal structure; DmC1GalT1^S73-Q388 (15 mg/mL) with 5 mM UDP, 2 mM MnCl2 and 5 mM APDT*RP; space group P21; 2.40 Å
[3] = target: T1, DmC1GalT1^T43-Q388 (Drosophila melanogaster C1GalT1, residues T43-Q388) (Drosophila melanogaster); assay: ITC; in the absence of UDP: 2 mM glycopeptide titrated into 60 µM DmC1GalT1^T43-Q388; 20 °C; 25 mM TRIS pH 7.5, 150 mM NaCl, 1 mM MnCl2; one-site model; duplicate; details: both partners purified
T1 construct: N-glycosylated (lower eukaryotes' C1GalT1 are N-glycosylated); The pHLSec vector (AgeI/KpnI) may leave a few vector residues at both ends (surmise); the SEC was done with the S73-Q388 construct; also called core 1/T-synthase; DmC1GalT1-His; source: HEK293, transfected (pHLSec), secreted, purified (His-Trap, Superdex 75)

[4] = target: T1, DmC1GalT1^T43-Q388 (Drosophila …); assay: ITC; under an excess of UDP: 2 mM (glyco)peptide titrated into DmC1GalT1^T43-Q388 (60 µM for APDT*RP and APDTRP, 50 µM for P4/P7); 20 °C; 25 mM TRIS pH 7.5, 150 mM NaCl, 1 mM UDP, 1 mM MnCl2; one-site model; duplicate; details: both partners purified
[5] = target: the molecule itself; assay: crystal structure; 15 mg/mL DmC1GalT1^S73-Q388, 5 mM UDP, 2 mM MnCl2, 5 mM APDT*RP; space group P2_(1); 2.40 Å
[6] = target: T2, Drosophila melanogaster C1GalT1, residues T43-Q388 (DmC1GalT1^T43-Q388) (Drosophila melanogaster, UniProt Q7K237 43-388); assay: ITC; 2 mM glycopeptide titrated into the enzyme (60 uM for APDT*RP, 50 uM for P4/P7); excess of UDP: 25 mM TRIS pH 7.5, 150 mM NaCl, 1 mM UDP, 1 mM MnCl2; 20 °C; one-site model; duplicate; details: both partners purified
T2 construct: N-glycosylated when made in HEK293; also called core 1/T-synthase; source: HEK293, transfected (pHLSec), secreted, purified (His-Trap, Superdex 75)

[7] = target: T2, Drosophila melanogaster C1GalT1, …; assay: ITC; 2 mM glycopeptide titrated into 60 uM enzyme; no UDP: 25 mM TRIS pH 7.5, 150 mM NaCl, 1 mM MnCl2; 20 °C; one-site model; duplicate; details: both partners purified
[8] = target: B3; assay: crystal structure; 15 mg/mL DmC1GalT1^S73-Q388, 5 mM UDP, 2 mM MnCl2, 5 mM APDT*RP; space group P2_(1); 2.40 Å; details: both partners purified
DmC1GalT1^T43-Q388 Y325A = DmC1GalT1^T43-Q388 Y325A (Drosophila melanogaster, UniProt Q7K237 43-388, Y325A); assay: cell-based or functional assay
DmC1GalT1^T43-Q388 Y213A = DmC1GalT1^T43-Q388 Y213A (Drosophila melanogaster, UniProt Q7K237 43-388, Y213A); assay: cell-based or functional assay
DmC1GalT1^T43-Q388 R152A = DmC1GalT1^T43-Q388 R152A (Drosophila melanogaster, UniProt Q7K237 43-388, R152A); assay: cell-based or functional assay

Binder: B1
- stoichiometry N [1]: 2
- stoichiometry N [2]: 2

Binder: B2
- Kd [3]: 41 µM
- stoichiometry N [3]: 0.98
- Kd [4]: 60.4 µM
- stoichiometry N [4]: 0.88

Binder: B3
- stoichiometry N [5]: 2

Binder: B4
- Kd [6]: 60 µM
- Kd [7]: 37.1 µM

Binder: B5
- Kd [6]: 60.3 µM
- Kd [7]: 41 µM

Binder: B6
- Kd [3]: 37.1 µM
- stoichiometry N [3]: 0.65
- Kd [4]: 60 µM
- stoichiometry N [4]: 1.5

Binder: B7
- binding result [8]: binds
- glycosyltransferase activity relative to WT (UDP-Glo, 500 nM mutant, 500 μM UDP-Gal, 500 μM APDT*RP) (DmC1GalT1^T43-Q388 Y325A): 25 fold decrease
- glycosyltransferase activity relative to WT (UDP-Glo, 500 nM mutant, 500 μM UDP-Gal, 500 μM APDT*RP) (DmC1GalT1^T43-Q388 Y213A): 25 fold decrease
- glycosyltransferase activity relative to WT (UDP-Glo, 500 nM mutant, 500 μM UDP-Gal, 500 μM APDT*RP) (DmC1GalT1^T43-Q388 R152A): 15 fold decrease
